Data as given in US20060193849A1 (ANTISOMA, published 2006).

B1: diabody Db 4.9M (other)
chain 1: QVQLVQSGAEVKKPGASVKVSCKASGYTFSAYWIEWVRQAPGKGLEWVGEILPGSNNSRYNEKFKGRVTVTADTSTNTAYMELSSLRSEDTAVYYCARSYDFAWFAYWGQGTLVTVSSGGGGSDIQMTQSPSSLSASVGDRVTITCKSSQSLLYSSNQKIYLAWYQQKPGKAPKLLIYWASTRESGVPSRFSGSGSGTDFTFTISSLQPEDIATYYCQQYYRYPRTFGQGTKVEIKR
chain 2: QVQLVQSGAEVKKPGASVKVSCKASGYTFSAYWIEWVRQAPGKGLEWVGEILPGSNNSRYNEKFKGRVTVTADTSTNTAYMELSSLRSEDTAVYYCARSYDFAWFAYWGQGTLVTVSSGGGGSDIQMTQSPSSLSASVGDRVTITCKSSQSLLYSSNQKIYLAWYQQKPGKAPKLLIYWASTRESGVPSRFSGSGSGTDFTFTISSLQPEDIATYYCQQYYRYPRTFGQGTKVEIKR
notes: also called diabody 4.9
B2: huHMFG1 scFv mutant 4.9M (stability engineered huHMFG1-scFv/Clone 4.9) (scFv)
scFv: QVQLVQSGAEVKKPGASVKVSCKASGYTFSAYWIEWVRQAPGKGLEWVGEILPGSNNSRYNEKFKGRVTVTADTSTNTAYMELSSLRSEDTAVYYCARSYDFAWFAYWGQGTLVTVSSGGGGSGGGGSGGGGSDIQMTQSPSSLSASVGDRVTITCKSSQSLLYSSNQKIYLAWYQQKPGKAPKLLIYWASTRESGVPSRFSGSGSGTDFTFTISSLQPEDIATYYCQQYYRYPRTFGQGTKVEIKR
notes: also called scFv 4.9M; HMFG1-scFv 4.9M

Experiments:
[1] = target: T1, MUC-1 gene product, the membrane mucin glycoprotein (polymorphic epithelial mucin or PEM) (human, UniProt P15941 24-1255); assay: flow cytometry equilibrium binding on MCF7 cells, non-linear regression; 0 h at 37 C
T1 construct: whole, on cells; SKOV-3 is also named in the method
T1 sequence (P15941 24-1255): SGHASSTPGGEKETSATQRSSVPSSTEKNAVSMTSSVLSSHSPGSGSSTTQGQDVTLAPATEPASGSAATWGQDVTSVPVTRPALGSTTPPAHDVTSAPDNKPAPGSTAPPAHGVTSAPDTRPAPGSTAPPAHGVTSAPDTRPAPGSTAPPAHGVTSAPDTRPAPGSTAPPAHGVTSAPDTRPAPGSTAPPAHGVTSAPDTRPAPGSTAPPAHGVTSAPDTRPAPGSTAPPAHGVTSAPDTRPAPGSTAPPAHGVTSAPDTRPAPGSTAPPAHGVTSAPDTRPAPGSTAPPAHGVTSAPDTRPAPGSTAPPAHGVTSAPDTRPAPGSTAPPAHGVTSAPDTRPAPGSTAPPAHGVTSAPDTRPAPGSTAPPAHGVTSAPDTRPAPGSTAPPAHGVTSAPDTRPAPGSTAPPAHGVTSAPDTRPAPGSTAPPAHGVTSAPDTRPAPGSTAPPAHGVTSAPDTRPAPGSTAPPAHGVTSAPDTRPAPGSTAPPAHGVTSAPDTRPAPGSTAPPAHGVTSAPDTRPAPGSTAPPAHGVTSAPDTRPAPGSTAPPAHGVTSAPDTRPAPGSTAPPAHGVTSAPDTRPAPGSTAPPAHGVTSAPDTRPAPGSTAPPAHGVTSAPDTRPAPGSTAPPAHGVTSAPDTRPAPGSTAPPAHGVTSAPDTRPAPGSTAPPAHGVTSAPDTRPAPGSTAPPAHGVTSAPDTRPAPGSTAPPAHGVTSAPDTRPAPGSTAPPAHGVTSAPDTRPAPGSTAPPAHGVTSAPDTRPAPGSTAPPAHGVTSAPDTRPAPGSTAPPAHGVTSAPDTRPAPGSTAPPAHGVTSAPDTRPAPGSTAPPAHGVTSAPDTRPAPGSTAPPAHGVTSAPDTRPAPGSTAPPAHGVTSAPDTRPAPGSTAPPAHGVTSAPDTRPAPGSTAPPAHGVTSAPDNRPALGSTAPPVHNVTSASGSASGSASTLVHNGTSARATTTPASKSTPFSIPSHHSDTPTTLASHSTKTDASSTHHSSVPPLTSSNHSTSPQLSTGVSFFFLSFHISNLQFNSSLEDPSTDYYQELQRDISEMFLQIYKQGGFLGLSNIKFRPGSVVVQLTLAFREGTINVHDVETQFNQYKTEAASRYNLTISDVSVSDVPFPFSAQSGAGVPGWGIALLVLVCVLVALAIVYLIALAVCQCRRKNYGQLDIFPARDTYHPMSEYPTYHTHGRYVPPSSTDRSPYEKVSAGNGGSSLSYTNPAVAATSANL
Experimental: (§1) Bound antibodies were detected under the same conditions, as described in the section entitled binding assays above.
After two final washing steps in 200 μl of FACS buffer, the cells were fixed in PBS buffer containing 2% paraformaldehyde for 15 minutes at room temperature and analysed by flow cytometry.
(§2) The median fluorescence intensity (MFI) was determined as described in the binding assays section above and the background fluorescence was subtracted. Equilibrium constants were determined by using the Marquardt-Levenberg algorithm for non-linear regression with the GraphPad Prism version 3.0a for Macintosh (GraphPad Software, San Diego, Calif.).

[2] = target: T1, MUC-1 gene product, the membrane mucin …; assay: flow cytometry equilibrium binding on MCF7 cells; reference scFv 4.9M
Experimental: as §1, §2

[3] = target: T1, MUC-1 gene product, the membrane mucin …; assay: flow cytometry equilibrium binding on MCF7 cells; after pre-incubation in PBS for 1 h at 37 C against no pre-incubation
Experimental: as §1, §2

[4] = target: T1, MUC-1 gene product, the membrane mucin …; assay: flow cytometry equilibrium binding on MCF7 cells, non-linear regression; after pre-incubation in PBS for 1 h at 37 C
Experimental: as §1, §2

Binder	Kd [1]	fold higher affinity than the corresponding scFv 4.9M [2]	fold decrease in antigen binding affinity after 1 hour at 37° C. in PBS [3]	Kd [4]
B1	8 nM	13 fold		
B2	103 nM		1.9 fold	195 nM
